How the values were obtained:
[1] = molecular target: TrnD (Bacillus thuringiensis); experiment: MST; TrnD fluorescently labeled; TrnC R370A/K372A mutant as the other partner
[2] = molecular target: TrnC (Bacillus thuringiensis); experiment: MST; TrnC fluorescently labeled with RED-NHS; series of diluted TrnD (or TrnD(ΔRRE), or an equimolar mixture of TrnD with TrnA or TrnB) mixed with it in capillaries; Monolith instrument; aerobic conditions
[3] = molecular target: TrnC (Bacillus thuringiensis); experiment: pull-down; 6× His-tagged TrnC and non-tagged TrnD coexpressed in E. coli from a pRSFduet-1-derived construct; cell lysate purified on Ni-NTA; SDS-PAGE

Substance: TrnC R370A/K372A mutant (enzyme)
- Kd [1]: 10.2 µM

Substance: TrnD(ΔRRE) (enzyme)
- Kd [2]: 100 µM

Substance: equimolar mixture of TrnD and TrnA (complex)
- Kd [2]: 0.54 µM

Substance: non-tagged TrnD (enzyme)
- stoichiometry N [3]: 1

— article PMC12093266, “Synergistic action of two radical SAM enzymes in the biosynthesis of thuricin CD, a two-component sactibiotic” (Chemical Science, 2025)
